In the supplement of paper PMC10567573 one finds protein stability index data, which are given here for 5 proteins.

The nature of the data set: protein stability index of a GFP-peptide fusion (GPS, HEK-293T) (PSI 1-6); higher = more stable. Particulars: c terminus: native.
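Further: lentivirally expressed fusion library, cells FACS-sorted into six equal-sized GFP/DsRed ratio bins, PSI computed from sequencing read fractions per bin weighted by bin number.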

B1: SNF8 addY (peptide)
chain: LPALFTDLYSQEITAEEAREALPY
Regarding B1, the protein stability index (parent: NP_009172.2) came to 4.33.

B2: BEX2 addY (peptide)
chain: HSLRAVSTDPPHHDHHDEFCLMPY
Take B2: the protein stability index (parent: NP_116010.1) came to 3.52.

B3: PSMB5 addY (peptide)
chain: DGWIRVSSDNVADLHEKYSGSTPY
B3: the protein stability index (parent: NP_002788.1) was 3.43.

B4: TRPA1 addY (peptide)
chain: EQRNSRWNTVLRAVKAKTHHLEPY
On to B4, for which the protein stability index (parent: NP_015628.1) was 4.2.

B5: POLD2 addY (peptide)
chain: CQPISFSGFGAEDDDLGGLGLGPY
B5: the protein stability index (parent: NP_006221.1) was found to be 2.32.
